Each block holds one binder with its values, some of them ahead of it.
What was measured:
[1] = molecular target: T1, 10-subunit holoTFIIH (coreTFIIH with TFIIK: Kin28–Ccl1–Tfb3) (Saccharomyces cerevisiae | yeast, UniProt Q00578 1-843; P06839 1-778; P32776 1-642; Q02939 1-513; Q04673 1-461; Q12004 …); assay: co-sedimentation; 10–40% glycerol gradient (20 mM HEPES, 150 mM potassium acetate, 2 mM magnesium acetate, 4 mM DTT, 2 mM ATP or AMP-PNP), 52,000 rpm 6 h 35 min, 4 °C; Rad4–Rad23–Rad33 pre-assembled on −24*/+24 AAF-DNA, then added to TFIIH; fractions by SDS-PAGE; details: both partners purified
T1 construct: Ssl2 (XPB homologue), subunit of yeast TFIIH; Rad3 (XPD homologue), subunit of yeast TFIIH; Tfb1 (p62 homologue), subunit of yeast TFIIH; Tfb2 (p52 homologue), subunit of yeast TFIIH; Ssl1 (p44 homologue), subunit of yeast TFIIH; Tfb4 (p34 homologue), subunit of yeast TFIIH; Tfb5 (p8 homologue), subunit of yeast TFIIH; Kin28, kinase subunit of yeast TFIIK; Ccl1, cyclin subunit of yeast TFIIK; …

coreTFIIH (7 subunits) = coreTFIIH (7 subunits) (Saccharomyces cerevisiae? (yeast, tfb6 …, UniProt Q00578;P06839;P32776;Q02939;Q04673;Q12004;Q3E7C1 …)); assay: glycerol gradient sedimentation; ATP; EMSA: 20 mM HEPES, 100 mM K-acetate, 2 mM Mg-acetate, 5 mM DTT, room temperature 20 min, 250 nM each component, 0.2x TBE agarose gel at 4 C (pH not stated in this buffer); details: protein: native; tags: TAP tags on Tfb4 and Ssl2; TEV-treated; copies: 1;1;1;1;1;1;1; label: 32P 5' end (T4 PNK) in EMSA; 5' overhang on strand 1: 9 nt from printed strands (text says 10 nt)
7-subunit coreTFIIH = molecular target: T2, 7-subunit coreTFIIH (Saccharomyces cerevisiae | yeast, UniProt Q00578 1-843; P06839 1-778; P32776 1-642; Q02939 1-513; Q04673 1-461; Q12004 …); assay: co-sedimentation; factor challenge: Rad2 added (~6-fold molar excess) to TFIIH/Rad4–23–33/AAF-DNA with ATP, 60 min, then 10–40% glycerol gradient (150 mM potassium acetate, 2 mM ATP), 4 °C; SDS-PAGE and densitometry; details: both partners purified
T2 construct: Ssl2 (XPB homologue), ATPase/translocase subunit of yeast coreTFIIH; printed numbering runs to residue 843; Rad3 (XPD homologue), helicase subunit of yeast coreTFIIH; Tfb1 (p62 homologue), subunit of yeast coreTFIIH; Tfb2 (p52 homologue), subunit of yeast coreTFIIH; Ssl1 (p44 homologue), subunit of yeast coreTFIIH; Tfb4 (p34 homologue), subunit of yeast coreTFIIH; Tfb5 (p8 homologue), subunit of …

- binding result [1]: binds
B1: Rad4–Rad23–Rad33 complex (complex, yeast)
chain 1: MNEDLPKEYFELIRKALNEKEAEKAPLSRRRRVRRKNQPLPDAKKKFKTGLNELPRESVVTVNLDSSDDGVVTVPTDDSVEEIQSSEEDYDSEEFEDVTDGNEVAGVEDISVEIKPSSKRNSDARRTSRNVCSNEERKRRKYFHMLYLVCLMVHGFIRNEWINSKRLSRKLSNLVPEKVFELLHPQKDEELPLRSTRKLLDGLKKCMELWQKHWKITKKYDNVGLYMRTWKEIEMSANNKRKFKTLKRSDFLRAVSKGHGDPDISVQGFVAMLRACNVNARLIMSCQPPDFTNMKIDTSLNGNNAYKDMVKYPIFWCEVWDKFSKKWITVDPVNLKTIEQVRLHSKLAPKGVACCERNMLRYVIAYDRKYGCRDVTRRYAQWMNSKVRKRRITKDDFGEKWFRKVITALHHRKRTKIDDYEDQYFFQRDESEGIPDSVQDLKNHPYYVLEQDIKQTQIVKPGCKECGYLKVHGKVGKVLKVYAKRDIADLKSARQWYMNGRILKTGSRCKKVIKRTVGRPKGEAEEEDERLYSFEDTELYIPPLASASGEITKNTFGNIEVFAPTMIPGNCCLVENPVAIKAARFLGVEFAPAVTSFKFERGSTVKPVLSGIVVAKWLREAIETAIDGIEFIQEDDNRKEHLLGALESWNTLLLKLRIRSKLNSTYGKIAEEEPNVTKEQNIADNHDNTETFMGGGFLPGIANHEARPYSEPSEPEDSLDYVSVDKAEESATDDDVGEDYSDFMKELEMSEESD
chain 2: MVSLTFKNFKKEKVPLDLEPSNTILETKTKLAQSISCEESQIKLIYSGKVLQDSKTVSECGLKDGDQVVFMVSQKKSTKTKVTEPPIAPESATTPGRENSTEASPSTDASAAPAATAPEGSQPQEEQTATTERTESASTPGFVVGTERNETIERIMEMGYQREEVERALRAAFNNPDRAVEYLLMGIPENLRQPEPQQQTAAAAEQPSTAATTAEQPAEDDLFAQAAQGGNASSGALGTTGGATDAAQGGPPGSIGLTVEDLLSLRQVVSGNPEALAPLLENISARYPQLREHIMANPEVFVSMLLEAVGDNMQDVMEGADDMVEGEDIEVTGEAAAAGLGQGEGEGSFQVDYTPEDDQAISRLCELGFERDLVIQVYFACDKNEEAAANILFSDHAD
chain 3: MSKSTNVSYERVELFENPKVPIEVEDEILEKYAESSLDHDMTVNELPRFFKDLQLEPTIWKLVRNEDVIIEGTDVIDFTKLVRCTCQLLILMNNLTVIDDLWSMLIRNCGRDVDFPQVALRDHVLSVKDLQKISNLIGADQSSGTIEMISCATDGKRLFMTYLDFGCVLGKLGYLKM
notes: Rad4 (XPC homologue), yeast; Rad23 (RAD23B homologue), yeast; Rad33 (CETN2 homologue), yeast; plasmid pETDuet-RAD33; also called Rad4–23–33; yeast homologue of XPC–RAD23B–CETN2; copies: + +

B2: -24*/+24 AAF (dsDNA)
DNA 1: CCCATTCCAACCATCCCACTACCTGTCCATCTTCACTCAACTATCACCC
DNA 2: GGGTGATAGTTGAGTGAAGATGGACAGGTAGTGGGATGGT
modifications: N-2-acetylaminofluorene adduct on the single G of strand 1 (nt 25, position 0)
- binding result (coreTFIIH (7 subunits)): binds

- percent of TFIIH dissociated from Rad4–Rad23–Rad33 and bound to Rad2 (Rad2 in ~6-fold molar excess, ATP) (7-subunit coreTFIIH): ~50%
B3: Rad2 (natural protein, yeast, UniProt P07276 1-1031, looked up)
chain: MGVHSFWDIAGPTARPVRLESLEDKRMAVDASIWIYQFLKAVRDQEGNAVKNSHITGFFRRICKLLYFGIRPVFVFDGGVPVLKRETIRQRKERRQGKRESAKSTARKLLALQLQNGSNDNVKNSTPSSGSSVQIFKPQDEWDLPDIPGFKYDKEDARVNSNKTFEKLMNSINGDGLEDIDLDTINPASAEFEELPKATQYLILSSLRLKSRLRMGYSKEQLETIFPNSMDFSRFQIDMVKRRNFFTQKLINTTGFQDGGASKLNEEVINRISGQKSKEYKLTKTNNGWILGLGANDGSDAQKAIVIDDKDAGALVKQLDSNAEDGDVLRWDDLEDNSLKIVRHESSNATTAPQKRSNRSEDEGCDSDECEWEEVELKPKNVKFVEDFSLKAARLPYMGQSLNNAGSKSFLDKRHDQASPSKTTPTMRISRISVEDDDEDYLKQIEEIEMMEAVQLSKMEKKPEADDKSKIAKPVTSKGTEARPPIVQYGLLGAQPDSKQPYHVTNLNSKSESVIKRTSKTVLSEFRPPSQQEDKGAILTEGEQNLNFISHKIPQFDFNNENSLLFQKNTESNVSQEATKEKSPIPEMPSWFSSTASQQLYNPYNTTNFVEDKNVRNEQESGAETTNKGSSYELLTGLNATEILERESEKESSNDENKDDDLEVLSEELFEDVPTKSQISKEAEDNDSRKVESINKEHRKPLIFDYDFSEDEEDNIVENMIKEQEEFDTFKNTTLSTSAERNVAENAFVEDELFEQQMKDKRDSDEVTMDMIKEVQELLSRFGIPYITAPMEAEAQCAELLQLNLVDGIITDDSDVFLFGGTKIYKNMFHEKNYVEFYDAESILKLLGLDRKNMIELAQLLGSDYTNGLKGMGPVSSIEVIAEFGNLKNFKDWYNNGQFDKRKQETENKFEKDLRKKLVNNEIILDDDFPSVMVYDAYMRPEVDHDTTPFVWGVPDLDMLRSFMKTQLGWPHEKSDEILIPLIRDVNKRKKKGKQKRINEFFPREYISGDKKLNTSKRISTATGKLKKRKM
notes: Rad2 (XPG homologue), yeast; plasmid pGVD52-RAD2HisSumo; also called yeast homolog of XPG; source: E. coli Rosetta(DE3), purified (HisTrap, Ulp1 cleavage, HisTrap flow-through, Heparin HP)

From PMC8184850, “Cryo-EM structure of TFIIH/Rad4–Rad23–Rad33 in damaged DNA opening in nucleotide excision repair” (Nature Communications, 2021)
